# Measurements taken from patent publication US20200317768A1 (published 2020).
# Residue numbers refer to the chain shown, from its start.
# T1: cynomolgus monkey FcγRIIa3 extracellular domain, C-terminal His-tag (cynomolgus monkey)
# T1 construct: also called cyno FcγRIIa3; FcgRIIa3
# T1 chain: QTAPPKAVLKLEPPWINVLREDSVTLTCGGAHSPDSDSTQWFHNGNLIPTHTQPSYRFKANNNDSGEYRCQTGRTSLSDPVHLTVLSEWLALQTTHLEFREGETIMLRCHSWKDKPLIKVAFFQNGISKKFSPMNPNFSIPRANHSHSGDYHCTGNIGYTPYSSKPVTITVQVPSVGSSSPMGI
# T2: cynomolgus monkey FcγRIIb extracellular domain, C-terminal His-tag (cynomolgus monkey)
# T2 construct: also called cyno FcγRIIb; cynoFcγRIIb
# T2 chain: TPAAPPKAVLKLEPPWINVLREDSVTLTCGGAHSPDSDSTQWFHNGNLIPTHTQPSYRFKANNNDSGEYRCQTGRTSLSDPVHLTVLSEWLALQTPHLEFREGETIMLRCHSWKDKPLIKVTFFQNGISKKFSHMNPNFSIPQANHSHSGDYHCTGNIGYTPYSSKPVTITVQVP
# T3: cynomolgus monkey FcγRIIa1 extracellular domain, C-terminal His-tag (cynomolgus monkey)
# T3 construct: also called cyno FcγRIIa1; FcgRIIa1
# T3 chain: T1 chain with T95P, A121T, S128A, P133H, N135D
# T4: cynomolgus monkey FcγRIIa2 extracellular domain, C-terminal His-tag (cynomolgus monkey)
# T4 construct: also called cyno FcγRIIa2; FcgRIIa2
# T4 chain: T1 chain with I127K, K130N, P133H, R142Q
# T5: cynomolgus monkey FcγRIIIaS extracellular domain, C-terminal His-tag (cynomolgus monkey, UniProt Q8SPW2 21-206 at identity 1.00))
# T5 construct: also called cyno FcγRIIIaS; FcgRIIIaS
# T5 chain: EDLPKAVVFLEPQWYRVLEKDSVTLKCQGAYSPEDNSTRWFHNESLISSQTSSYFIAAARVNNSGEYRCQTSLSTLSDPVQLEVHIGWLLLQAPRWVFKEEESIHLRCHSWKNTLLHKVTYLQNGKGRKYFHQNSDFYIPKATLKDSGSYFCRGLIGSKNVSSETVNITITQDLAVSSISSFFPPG
# T6: Cynomolgus monkey latent myostatin (cynomolgus monkey, UniProt Q95J86 25-266; Q95J86 267-375)
# T6 construct: Latent form = complex of two propeptides and the mature dimer; also called Cyno latent myostatin
# T6 sequence 1: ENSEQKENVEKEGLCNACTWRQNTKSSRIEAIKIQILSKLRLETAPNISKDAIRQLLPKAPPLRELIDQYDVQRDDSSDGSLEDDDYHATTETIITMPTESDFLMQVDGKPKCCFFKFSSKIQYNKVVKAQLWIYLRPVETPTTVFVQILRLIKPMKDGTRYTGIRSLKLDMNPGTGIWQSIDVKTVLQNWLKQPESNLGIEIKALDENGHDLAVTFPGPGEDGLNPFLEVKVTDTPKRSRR
# T6 sequence 2: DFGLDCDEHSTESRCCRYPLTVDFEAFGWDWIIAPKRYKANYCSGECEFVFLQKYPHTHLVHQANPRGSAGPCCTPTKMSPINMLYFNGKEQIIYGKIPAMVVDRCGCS
# T7: cynomolgus monkey FcγRIIa3 extracellular domain with C-terminal His-tag (cynomolgus monkey)
# T7 construct: also called cyno FcgRIIa3; cynoFcγRIIa3
# T7 chain: T1 chain
# B1: MS_M103205H795-SG1/M103202L889-SK1 (antibody, human IgG1, kappa)
# heavy: not shown
# light: DIVMTQSPATLSLSPGERATLSCTSSQSVYHANWLSWFQQKPGQPPKLLIYWASTLAYGVPSRFSGSGSGTDFTLTISSLQPEDAATYYCAGGYGGGRYAFGQGTKVEIKRTVAAPSVFIFPPSDEQLKSGTASVVCLLNNFYPREAKVQWKVDNALQSGNSQESVTEQDSKDSTYSLSSTLTLSKADYEKHKVYACEVTHQGLSSPVTKSFNRGEC
# notes: also called MS1032LO06-SG1
# B2: MS_M103205H795-SG1/M103202L889-SK1 (antibody, human IgG1, kappa)
# heavy: not shown
# light: B1 light
# notes: Parent antibody of the Fc variants; also called MS1032LO06-SG1
# Assays:
# [1] = target: T1, cynomolgus monkey FcγRIIa3 …; assay: SPR; FcgR bound per captured antibody, normalized to SG1
# Description: (§1) The kinetic analysis of interactions between these antibodies and FcγR was carried out using BIACORE® T200 or BIACORE® 4000 (GE Healthcare). HBS-EP+ (GE Healthcare) was used as the running buffer, and the measurement temperature was set to 25° C. A chip produced by immobilizing Protein A. Protein A/G or mouse anti-human IgG kappa light chain (BD Biosciences) onto a Series S Sensor Chip CM4 or CM5 (GE Healthcare) by the amine-coupling method was used. […] After the measurement, the antibody captured on the chip was washed off by allowing reaction with 10 mM glycine-HCl, pH1.5 and 25 mM NaOH so that the chip was regenerated and used repeatedly. The sensorgrams obtained as measurement results were analyzed by the 1:1 Langmuir binding model using the BIACORE® Evaluation Software to calculate the binding rate constant ka (L/mol/s) and dissociation rate constant kd (l/s), and the dissociation constant KD (mol/L) was calculated from these values. […] Regarding such interactions, KD values were calculated using the following 1:1 binding model described in BIACORE® T100 Software Handbook BR1006-48 Edition AE.
# (§2) The value of the amount of FcγR binding was obtained by dividing the amount of FcγR bound by the amount of each antibody captured.
# [2] = target: T2, cynomolgus monkey FcγRIIb extracellular …; assay: as above
# Description: as §1, §2
# [3] = target: T3, cynomolgus monkey FcγRIIa1 …; assay: as above
# Description: as §1, §2
# [4] = target: T4, cynomolgus monkey FcγRIIa2 …; assay: as above
# Description: as §1, §2
# [5] = target: T5, cynomolgus monkey FcγRIIIaS …; assay: as above
# Description: as §1, §2
# [6] = target: T6, Cynomolgus monkey latent myostatin; assay: SPR 37C; KD pH 5.8 / KD pH 7.4
# [7] = target: T7, cynomolgus monkey FcγRIIa3 …; assay: SPR (BIACORE), antibody captured, FcgR analyte
# Description: as §1
# The behavior of interacting molecules according to the 1:1 binding model on BIACORE® can be described by Equation 1: Req=C·R max/(KD+C)+RI, wherein, Req is a plot of steady-state binding levels to analyte concentration. C is concentration, RI is bulk refractive index contribution in the sample, and Rmax is analyte binding capacity of the surface. When this equation is rearranged, KD can be expressed as Equation 2: KD=C·Rmax/(Req−RI)−C. KD can be calculated by substituting the values of Rmax, RI, and C into Equation 1 or Equation 2. From the current measurement conditions, RI=0, C=2 μmol/L can be used.
binder,measurement,setting,value
B1,amount of FcgR binding (SG1 = 100),[1],100 SG1 = 100
same,amount of FcgR binding (SG1 = 100),[2],100 SG1 = 100
same,amount of FcgR binding (SG1 = 100),[3],100 SG1 = 100
same,amount of FcgR binding (SG1 = 100),[4],100 SG1 = 100
same,amount of FcgR binding (SG1 = 100),[5],100 SG1 = 100
same,ratio of KD at pH 5.8/pH 7.4,[6],76
B2,Kd,[7],17 µM
